# Laboratory results as given in PMC2680933.
# pKd: −log10 of the molar value.
# Assays:
# Assay in all cases: FRET or BRET
# [1] = target: III3(D838G)-FRET
# [2] = target: III3(V798D)-FRET
# [3] = target: III3(V834D)-FRET
# [4] = target: III3-FRET (III3 flanked by mYPet and mECFP*)
substance,measurement,setting,value
anastellin (domain or fragment),FRET efficiency of the construct with anastellin (0.18 without),[1],0.27
same,pKd,[1],6.31
same,half time of binding,[1],60 s
same,FRET efficiency of the construct with anastellin (0.21 without),[2],0.28
same,pKd,[2],6.74
same,half time of binding,[2],< 1 s
same,FRET efficiency of the construct with anastellin (0.21 without),[3],0.27
same,pKd,[3],> 7.30
same,half time of binding,[3],< 1 s
same,FRET efficiency of the construct with anastellin (0.19 without),[4],0.28
same,pKd,[4],6.68
same,first order rate constant of binding,[4],0.02 s⁻¹
same,half time of binding,[4],30 s
